From patent US11332499B2, “Cyclic peptides and methods of use thereof” (Regents of the University of Minnesota, priority 2018, dated 2022)
“And” between values parts separate entries of the source, which are not always exact repeats. Identical values can stand only once. Like-named read-outs stand apart in the source and are kept apart here. Bridge positions count the residues as written; N and C are the ends. Square brackets hold non-standard residues; d marks the D form. Ends that are not written are not given here.

Assays:
mMC4R [1] = biological target: T1, mMC4R (Mus musculus, UniProt P56450); assay: AlphaScreen cAMP assay, agonist activity, HEK293 cells stably expressing mMC4R; type: cell-based; parameters: expressed in transfected cells; conditions: Table 2; at 100 μM
mMC3R [2] = biological target: T2, mMC3R (Mus musculus, UniProt P33033); assay: AlphaScreen cAMP assay, agonist activity, HEK293 cells stably expressing mMC3R; type: cell-based; conditions: Table 2; at 100 μM
T2 construct: expressed in transfected cells

mMC5R [3] = biological target: T3, mMC5R (Mus musculus, UniProt P41149); assay: AlphaScreen cAMP assay, agonist and inverse agonist activity, HEK293 cells stably expressing mMC5R; type: cell-based; conditions: Table 2; at 100 μM
T3 construct: expressed in transfected cells

mMC1R [4] = biological target: T4, mMC1R (Mus musculus, UniProt Q01727); assay: AlphaScreen cAMP assay, agonist activity, HEK293 cells stably expressing mMC1R; type: cell-based; conditions: Table 2; at 100 μM, relative to NDP-MSH
T4 construct: expressed in transfected cells

mMC4R [5] = biological target: T1, mMC4R; conditions: Example 4; from Ki values
MC4R [6] = biological target: T5, MC4R (Homo sapiens, UniProt P32245); conditions: previously reported; cited from earlier work
Target sequence in this assay (P32245 whole entry, species assumed): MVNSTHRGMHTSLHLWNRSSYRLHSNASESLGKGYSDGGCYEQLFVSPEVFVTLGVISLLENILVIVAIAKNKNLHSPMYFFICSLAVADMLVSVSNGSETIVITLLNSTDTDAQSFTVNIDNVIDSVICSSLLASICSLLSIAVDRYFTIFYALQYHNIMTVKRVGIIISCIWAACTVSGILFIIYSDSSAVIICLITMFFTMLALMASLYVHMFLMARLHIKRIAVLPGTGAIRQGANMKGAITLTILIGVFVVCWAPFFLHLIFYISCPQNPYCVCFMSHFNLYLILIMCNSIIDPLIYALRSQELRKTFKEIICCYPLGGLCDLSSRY

MC1R = MC1R (Mus musculus, UniProt Q01727); conditions: previously reported, read-out: MC1R agonist potency, cited from earlier work
hMC1R = hMC1R (Homo sapiens, UniProt Q01726); conditions: inhibition of α-MSH activity, cited from earlier work
hMC3R = hMC3R (Homo sapiens, UniProt P41968); conditions: inhibition of α-MSH activity; cited from earlier work
MC4R [7] = biological target: T5, MC4R; parameters: expressed in transfected cells; conditions: inhibition of α-MSH activity; cited from earlier work
Target sequence in this assay (P32245 whole entry): as the sequence (P32245 whole entry, species assumed) above

hMC4R-Kir7.1(M125R) [8] = biological target: T6, hMC4R-Kir7.1(M125R) (Homo sapiens, UniProt P32245); conditions: up to 100 nM; literature; cited from earlier work
T6 construct: expressed in transfected cells; Kir7.1 tetracycline-induced)

rats = conditions: ICV administration into rats; cited from earlier work
MC4R [9] = biological target: T5, MC4R; assay: AlphaScreen cAMP assay, inverse agonist activity at hMC4R; type: cell-based; parameters: expressed in transfected cells; conditions: Table 10
Target sequence in this assay (P32245 whole entry): as the sequence (P32245 whole entry, species assumed) above
Protocol: The apparent potencies were determined from the inflection point of the normalized sigmoidal dose-response curves.
(§1) Briefly, cells 70-90% confluent were dislodged with Versene (Gibco®) at 37° C. and plated 10,000 cells/well in a 384-well plate (Optiplate™) with 10 μL freshly prepared stimulation buffer (1×HBSS, 5 mM HEPES, 0.5 mM IBMX, 0.1% BSA, pH=7.4) with 0.5 μg anti-cAMP acceptor beads per well.
(§2) Following stimulation, streptavidin donor beads (0.5 μg) and biotinylated-cAMP (0.62 μmol) were added to the wells in a subdued light environment with 10 μL lysis buffer (5 mM HEPES, 0.3% Tween-20, 0.1% BSA, pH=7.4) and the plates were incubated in the dark at room temperature for an additional 2 hr.
(§3) The EC50 values represent the mean of duplicate replicates performed in at least three independent experiments. The EC50 estimates and associated standard errors (SEM) were determined by fitting the data to a nonlinear least-squares analysis using the PRISM program (v4.0, GraphPad Inc.). The ligands were assayed as TFA salts and not corrected for peptide context.

hMC4R-Kir7.1(M125R) [10] = biological target: T6, hMC4R-Kir7.1(M125R); assay: Kir7.1 thallium flux assay, HEK293 cells expressing human MC4R and Kir7.1 (M125R); type: cell-based; conditions: antagonist Ki / Kir7.1 apparent potency
Protocol: In this assay, the Kir7.1 (M125R) variant was used since it previously was reported to result in higher unitary conductance compared to the native channel.^39
The compound with the highest apparent potency.
HEK293 cells stably expressing the human MC4R and Kir7.1 (M125R) were grown in MEM medium with 10% FBS without antibiotics, suspended in medium plus 1 μg ml^−1 tetracycline (to induce expression of the transfected tet-sensitive Kir7.1 gene) and plated (20 μL) in 384-well poly-D-lysine coated optical bottom plates (BD Biosciences) at 20,000 cells per well. Plates were incubated overnight for 16-24 h in the cell incubator at 37° C., 5% CO2. […] Plates were incubated in the dark for 1 h at room temperature and dye solution was removed. Upon addition of 20 μL 1×HBSS buffer, a liquid handler added 20 μL of ligand solution to entire plate simultaneously (ligands were prepared by serial dilution in 1×HBSS, 20 mM HEPES, 0.1% BSA, pH 7.3). Plates were incubated in the dark for 20 min (unless otherwise indicated). After a baseline reading on a Thallos Plate-reader (Vanderbilt, Tenn.), 10 μL of a thallium solution (1×HBSS, 20 mM HEPES, 2 mM Tl, pH 7.3) was loaded and fluorescence generated by thallium influx was recorded for 10 min. The signal was normalized to an untreated control.

MC4R [11] = biological target: T5, MC4R; parameters: expressed in transfected cells; conditions: Table 10; AGRP(87-132), previously reported by Jackson et al.; read-out: hMC4R 125I-NDP-MSH IC50; cited from earlier work
Target sequence in this assay (P32245 whole entry): as the sequence (P32245 whole entry, species assumed) above

mMC4R [12] = biological target: T1, mMC4R; parameters: expressed in transfected cells; conditions: cited from earlier work
mMC5R [13] = biological target: T3, mMC5R; conditions: Table 6; previously described (Wilczynski 2004); read-out: Inverse Agonist mMC5R EC50; cited from earlier work
mMC1R [14] = biological target: T4, mMC1R; conditions: Table 6; previously described (Wilczynski 2004); read-out: Agonist mMC1R EC50; cited from earlier work
mMC3R [15] = biological target: T2, mMC3R; conditions: Table 6, previously described (Wilczynski 2004), cited from earlier work
free-feeding mice [16] = assay: Mouse feeding study, intrathecal (IT) administration (Example 5); type: in vivo; conditions: 10 nmol
Protocol: All studies were performed in standard mouse polycarbonate conventional cages provided by the University of Minnesota's Research Animal Resources (RAR), and were changed weekly by laboratory research staff.
All ICV and IT administration experiments utilized a crossover design with free access to standard chow. Mice were housed in RAR supplied conventional mouse cages. Compound MDE3-119-8e was dissolved in a stock solution of 10 nmols/μL in 3% v/v DMSO (Sigma Aldrich)/saline (0.9% sodium chloride, Hospira Inc., Lake Forest, Ill.). Ligands MDE3-119-2c and MDE3-119-10c were dissolved in 20% solutol (Sigma Aldrich). Matching vehicle controls (3% v/v DMSO in saline and 20% solutol) were prepared in parallel. The day of compound administration, an aliquot of stock solution was diluted with saline to the desired experimental dose in 3 μL, in parallel with vehicle control. For ICV administration, the desired experimental dose (3 μL) or vehicle control (3 μL) was delivered 2 h before lights out (t=0 h). […] Food intake and mouse weight was manually measured at t=0, 2, 4, 6, 8, 24, 48, and 72 h post-injection. […]
For feeding experiments with compound MDE3-119-10c, data were analyzed using the PRISM program (v4.0; GraphPad Inc.) by two-way ANOVA with a Sidak's multiple comparison post hoc test.

MC4R [17] = biological target: T5, MC4R; assay: Competitive radioligand binding, displacement of 125I-NDP-MSH, HEK293 cells expressing hMC4R; parameters: expressed in transfected cells; conditions: displacement of 125I-NDP-MSH
Target sequence in this assay (P32245 whole entry): as the sequence (P32245 whole entry, species assumed) above

MC4R [18] = biological target: T5, MC4R; assay: Competitive radioligand binding, displacement of 125I-AGRP, HEK293 cells expressing hMC4R; parameters: expressed in transfected cells; conditions: displacement of 125I-AGRP
Target sequence in this assay (P32245 whole entry): as the sequence (P32245 whole entry, species assumed) above
Protocol: Competitive binding affinity experiments were performed on HEK-293 cells stably expressing the wildtype hMC4R. […] The assay media was carefully aspirated and cells were washed once with assay buffer. Cell were lysed with 500 μL 0.1 M NaOH and 500 μL 1% Triton X-100 for a minimum of 10 min. […] All experiments were performed with duplicate data points and in at least two independent experimental replicates. […] Concentration-response curves and IC50 values were generated and analyzed by the PRISM program (version 4.0. GraphPad Inc.) by a nonlinear regression method. The standard error of the mean (SEM) was derived from the IC50 values from at least two independent experimental replicates.

free-feeding mice [19] = assay: Mouse feeding study, intracerebroventricular (ICV) administration; type: in vivo; conditions: 10 nmol
Protocol: Cannulation surgeries were performed to place a cannula into the lateral cerebral ventricle as previously reported.^23,67,76 Mice were anesthetized with a mixture of xylazine (5 mg/kg) and ketamine (100 mg/kg) administered intraperitoneal (IP) and placed in a stereotaxic apparatus (David Kopf Instruments) that was used to guide the cannula placement. […] After surgery, flunixin meglumine (FluMegluine, Clipper Distribution Company) and 0.5 mL of 0.9% saline (Hospira, Lake Forrest, Ill.) was administered subcutaneously to aid in recovery. Mice recovered for at least 7 days prior to cannula placement validation. Mice were housed individually after surgery and for the remainder of the experiments.
Cannula placement was validated by the feeding response after ICV administration of 2.5 μg of human (h)PYY3-36 (cat # H8585; Bachem), as described previously.^23,67,75-76 Mice received saline treatment and hPYY treatment on different days separated by a washout period of at least 3 days in a crossover design nocturnal feeding paradigm. In this paradigm, compound or saline is administered 2 h prior to lights out (t=0 h) and body weight and food are measured. Mice have free access to food and water. At 4 h post-administration, food is measured. A mouse with a validated properly placed cannula consumed at least 0.8 g more food after hPYY administration compared to saline administration at 4 h.
All ICV and IT administration experiments utilized a crossover design with free access to standard chow. Mice were housed in RAR supplied conventional mouse cages. […] Matching vehicle controls (3% v/v DMSO in saline and 20% solutol) were prepared in parallel. The day of compound administration, an aliquot of stock solution was diluted with saline to the desired experimental dose in 3 μL, in parallel with vehicle control. For ICV administration, the desired experimental dose (3 μL) or vehicle control (3 μL) was delivered 2 h before lights out (t=0 h). For IT administration, the desired experimental dose (5 μL) or vehicle control (5 μL) was delivered 2 h before lights out (t=0 h). Food intake and mouse weight was manually measured at t=0, 2, 4, 6, 8, 24, 48, and 72 h post-injection. Mice recovered 6-7 days between treatments to reestablish pretreatment body weight and feeding patterns.

MC4R [20] = biological target: T5, MC4R; assay: AlphaScreen cAMP assay, antagonist activity (Schild, NDP-MSH) at hMC4R; type: cell-based; parameters: expressed in transfected cells; conditions: Example 5
Target sequence in this assay (P32245 whole entry): as the sequence (P32245 whole entry, species assumed) above
Protocol: as §1, §2, §3

MC4R [21] = biological target: MC4R (Mus musculus, UniProt P56450); conditions: β-galactosidase reporter gene assay; previously reported; cited from earlier work
MC3R = MC3R (Mus musculus, UniProt P33033); conditions: β-galactosidase reporter gene assay; previously reported; cited from earlier work
MC3R, sequence (P33033 whole entry): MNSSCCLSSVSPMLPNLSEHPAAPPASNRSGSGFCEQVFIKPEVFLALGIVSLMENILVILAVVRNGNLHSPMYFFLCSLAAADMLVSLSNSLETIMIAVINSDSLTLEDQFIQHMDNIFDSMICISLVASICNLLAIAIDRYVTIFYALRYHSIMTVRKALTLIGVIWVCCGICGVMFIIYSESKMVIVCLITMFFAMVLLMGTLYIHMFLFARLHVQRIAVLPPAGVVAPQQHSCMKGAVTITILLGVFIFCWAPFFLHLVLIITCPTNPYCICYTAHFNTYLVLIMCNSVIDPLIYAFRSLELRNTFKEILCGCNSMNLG

MC1R, sequence (Q01727 whole entry): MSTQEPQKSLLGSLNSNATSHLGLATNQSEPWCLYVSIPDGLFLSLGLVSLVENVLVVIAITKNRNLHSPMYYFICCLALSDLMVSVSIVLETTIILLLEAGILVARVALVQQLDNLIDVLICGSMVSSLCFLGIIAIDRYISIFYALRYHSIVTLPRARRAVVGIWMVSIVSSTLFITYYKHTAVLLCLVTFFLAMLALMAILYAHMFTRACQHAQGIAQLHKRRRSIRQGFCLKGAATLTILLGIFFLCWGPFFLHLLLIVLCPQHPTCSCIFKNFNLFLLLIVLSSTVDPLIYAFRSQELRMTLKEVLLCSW
T1 sequence (P56450 whole entry): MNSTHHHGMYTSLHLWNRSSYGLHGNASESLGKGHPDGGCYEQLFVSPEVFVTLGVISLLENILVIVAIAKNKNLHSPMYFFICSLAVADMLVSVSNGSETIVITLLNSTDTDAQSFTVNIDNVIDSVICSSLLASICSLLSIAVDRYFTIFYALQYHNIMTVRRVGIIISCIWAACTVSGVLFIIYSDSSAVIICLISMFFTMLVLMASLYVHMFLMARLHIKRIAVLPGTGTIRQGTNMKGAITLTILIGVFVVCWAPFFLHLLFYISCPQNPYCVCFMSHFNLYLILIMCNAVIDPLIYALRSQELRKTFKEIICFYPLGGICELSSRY
T2 sequence (P33033 whole entry): as the sequence (P33033 whole entry) above
T6 sequence (P32245 whole entry, stated change not applied): as the sequence (P32245 whole entry, species assumed) above
hMC1R, sequence (Q01726 whole entry): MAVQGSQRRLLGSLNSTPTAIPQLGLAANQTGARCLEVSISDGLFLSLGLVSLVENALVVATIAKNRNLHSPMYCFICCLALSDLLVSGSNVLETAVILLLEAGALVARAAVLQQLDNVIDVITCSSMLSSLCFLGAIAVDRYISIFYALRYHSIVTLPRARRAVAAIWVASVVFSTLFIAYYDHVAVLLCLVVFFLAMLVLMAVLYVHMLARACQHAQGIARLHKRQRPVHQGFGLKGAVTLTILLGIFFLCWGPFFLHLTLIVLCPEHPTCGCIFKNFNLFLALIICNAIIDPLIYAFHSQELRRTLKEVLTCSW
T4 sequence (Q01727 whole entry): as the sequence (Q01727 whole entry) above
T3 sequence (P41149 whole entry): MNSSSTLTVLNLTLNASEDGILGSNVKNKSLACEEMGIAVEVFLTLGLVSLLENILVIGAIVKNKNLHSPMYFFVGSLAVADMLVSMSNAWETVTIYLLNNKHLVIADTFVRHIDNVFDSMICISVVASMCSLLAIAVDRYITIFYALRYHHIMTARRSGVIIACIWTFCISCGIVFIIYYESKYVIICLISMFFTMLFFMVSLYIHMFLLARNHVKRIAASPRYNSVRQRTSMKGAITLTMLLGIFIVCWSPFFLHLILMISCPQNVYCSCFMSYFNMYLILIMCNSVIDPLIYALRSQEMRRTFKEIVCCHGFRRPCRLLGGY
hMC3R, sequence (P41968 whole entry): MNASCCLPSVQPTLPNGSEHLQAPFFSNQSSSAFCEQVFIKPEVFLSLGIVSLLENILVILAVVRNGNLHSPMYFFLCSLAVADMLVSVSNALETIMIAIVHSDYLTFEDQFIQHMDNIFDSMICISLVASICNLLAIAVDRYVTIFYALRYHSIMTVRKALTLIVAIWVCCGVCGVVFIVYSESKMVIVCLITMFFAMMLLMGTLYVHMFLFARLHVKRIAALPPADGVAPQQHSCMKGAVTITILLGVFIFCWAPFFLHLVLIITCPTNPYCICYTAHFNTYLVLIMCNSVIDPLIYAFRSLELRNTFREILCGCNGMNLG
MC4R (Mus musculus, UniProt P56450), sequence (P56450 whole entry): as the sequence (P56450 whole entry) above

Substance: 20 (cyclo(PRFFNFF[dP]); SMILES N=C(N)NCCC[C@@H]1NC(=O)[C@@H]2CCCN2C(=O)[C@H]2CCCN2C(=O)[C@H](Cc2ccccc2)NC(=O)[C@H](Cc2ccccc2)NC(=O)[C@H](CC(N)=O)NC(=O)[C@H](Cc2ccccc2)NC(=O)[C@H](Cc2ccccc2)NC1=O) [Peptide 20]
- mMC4R percent maximal stimulatory response (mMC4R [1]): 35% @
- mMC3R percent maximal stimulatory response (mMC3R [2]): 35% @
- mMC5R percent maximal stimulatory response (mMC5R [3]): 25% @
- mMC1R percent maximal stimulatory response (mMC1R [4]): 70% @ 100 μM
- fold selectivity for the mMC4R over the mMC3R (mMC4R [5]): 600 fold and 630 fold

Substance: H-DPAATAYCRFFNAFCYARKL-OH (disulfide 8-15) [20 residue peptide]
- MC4R antagonist pA2 (MC4R [6]): 6.9
- EC50 (MC1R): 960 nM

Substance: ASP-YY: synthesized ASP variant with two residues changed to the homologous AGRP residues (KKVVRPRTPLSAPCVATRNSCKPPAPACCDPCASCYCRFFRSACYCRVLSLNC; UniProt P42127 80-132, looked up, variant Q115Y S124Y)
- functional antagonist potency, hMC1R (hMC1R): 3.9 nM
- functional antagonist potency, hMC1R (hMC1R; listed as Agouti-YY): 4.0 nM
- functional antagonist potency, hMC3R (hMC3R): 2.6 nM
- functional antagonist potency, hMC4R (MC4R [7]): 0.5 nM

Substance: mini-AGRP: truncated form of AGRP (AGRP87-120, C105A) (CVRLHESCLGQQVPCCDPAATCYCRFFNAFCYCR; ends and bridges not checked; cysteine pairing not given here; UniProt O00253 87-120, looked up, fragment C105A)
- effect on thallium flux (hMC4R-Kir7.1(M125R) [8]): did not affect thallium flux at concentrations up to 100 nM
- increase of 24 h food intake above saline (rats): 21%

Substance: hAGRP(86-132): C-terminal domain of agouti-related protein, purchased from Peptides International (RCVRLHESCLGQQVPCCDPCATCYCRFFNAFCYCRKLGTAMNPCSRT) [reference compound]
- hMC4R Inverse Agonist, decrease from basal signal (MC4R [9]): (-35%)
- fold selective for cAMP over Kir7.1 signaling (hMC4R-Kir7.1(M125R) [10]): 2 fold
- IC50 (MC4R [11]): 11 ± 1 nM

Substance: hAGRP(87-132): truncated human agouti-related protein, previously described in Wilczynski et al. 2004
- Antagonist mMC4R pA2 (mMC4R [12]; Table 6, previously described (Wilczynski 2004)): 9.4 ± 1.0
- Ki (mMC4R [12]; Table 6, previously described (Wilczynski 2004), read-out: Antagonist mMC4R Ki): 0.4 nM
- EC50 (mMC5R [13]): > 100000 nM
- EC50 (mMC1R [14]): > 100000 nM
- Antagonist mMC3R pA2 (mMC3R [15]): 8.9 ± 0.2
- Ki (mMC3R [15]; read-out: Antagonist mMC3R Ki): 1.3 nM
- increase of 24 h food intake above saline (rats): 42%

Substance: c[Pro-Arg-Phe-Phe-Val-Ala-Phe-DPro] [Peptide 13 (Example 1)]
- food intake after IT administration vs vehicle (free-feeding mice [16]): no effect on food intake compared to vehicle
- fold decreased antagonist potency compared to the Dap substitution at the mMC4R (mMC4R [12]; previous SAR study (ref 52)): 630 fold
- fold decreased binding affinity compared to NDP-MSH (MC4R [17]): 200 fold
- fold decreased binding affinity compared to AGRP (MC4R [18]): 200 fold
- cumulative food intake after ICV administration vs vehicle (free-feeding mice [19]): significant, prolonged decrease in cumulative food intake at 4, 6, 8, 24, 48, and 72 h
- fold decreased antagonist potency relative to MDE3-119-8c at the hMC4R (MC4R [20]): 310 fold
- fold selective for Kir7.1 signaling over cAMP antagonism (hMC4R-Kir7.1(M125R) [10]): 4,000 fold

Substance: Tyr-c[Cys-Arg-Phe-Phe-Asn-Ala-Phe-Cys]-Tyr (YCRFFNAFCY; disulfide 2-9) [hAGRP (109-118)]
- MC4R antagonist pA2 (MC4R [21]): 6.8 ± 0.4
- EC50 (MC1R; listed as H-Tyr-c[Cys-Arg-Phe-Phe-Asn-Ala-Phe-Cys]-Tyr-OH): 2890 nM
- EC50 (MC1R): 3000 nM
- MC3R antagonist pA2 (MC3R): No activity
